Measurements reported in patent US20150017230A1 (ACADEMIA SINICA, published 2015).
Where a chain is given by its changes, count along the chain named.

T1: EpCAM antigen immobilized on CM5 sensor chip (human, UniProt P16422 24-265, limits assumed)
T1 sequence: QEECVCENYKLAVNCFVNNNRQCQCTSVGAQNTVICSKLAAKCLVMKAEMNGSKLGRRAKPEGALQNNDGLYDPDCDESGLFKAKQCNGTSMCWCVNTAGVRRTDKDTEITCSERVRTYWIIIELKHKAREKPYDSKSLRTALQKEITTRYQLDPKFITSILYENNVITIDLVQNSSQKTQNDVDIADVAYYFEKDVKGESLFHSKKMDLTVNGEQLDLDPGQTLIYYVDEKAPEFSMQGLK

T2: human epithelial cell adhesion molecule (EpCAM), endogenous in SAS and other cancer cells (human, UniProt P16422 24-314)
T2 construct: also called TACSTD1; epithelial specific antigen (ESA)
T2 sequence: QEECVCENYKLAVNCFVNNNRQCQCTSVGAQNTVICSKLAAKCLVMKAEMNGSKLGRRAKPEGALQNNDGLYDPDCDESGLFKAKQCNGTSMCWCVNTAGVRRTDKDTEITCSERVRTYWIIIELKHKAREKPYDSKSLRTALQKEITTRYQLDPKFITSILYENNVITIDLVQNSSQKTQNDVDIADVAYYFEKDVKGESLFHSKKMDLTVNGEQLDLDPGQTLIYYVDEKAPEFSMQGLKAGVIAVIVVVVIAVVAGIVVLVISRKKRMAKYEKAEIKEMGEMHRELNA

B1: EpAb4-1 (antibody, V domains shown)
VH: QIQLVQSGPELKKPGETVKISCKASGYTFTNYGMNWVKQAPGKGLKWMGWINTYTGEPTYGDDFKGRFAFSLETSASTAYLQINNLKNEDTATYFCARFGRSVDFWGQGTSVTVSS
VL: DIVMTQAAFSNPVTLGTSASISCRSSKSLLHSNGITYLYWYLQKPGQSPQLLIYHMSNLASGVPDRFSSSGSGTDFTLRISRVEAEDVGIYYCAQNLENPRTFGGGTKLEIK
B2: EpAb2-6 (antibody, V domains shown)
VH: EVQLVESGPELKKPGETVKISCKASGYTFTDYSMHWVKQAPGKGLKWMGWINTETGEPTFADDFKGRFAFSLETSARTTYLQINNLKNEDTATYFCARTAVYWGQGTSLTVSS
VL: DIQLTQSPSSLSASLGERVSLTCRASQEISVSLSWLQQKPDGTIKRLIYATSTLDSGVPKRFSGSRSGSDYSLTISSLESEDFADYYCLQYASYPWTFGGGTKLEIKR
notes: Mouse hybridoma monoclonal IgG; also called mEpAb2-6; murine EpAb2-6
B3: humanized EpAb2-6 (antibody, V domains shown)
VH: VKLQESGPELKKPGETVKISCKASGYTFTDYSMHWVKQAPGKGLKWMGWINTETGEPTYADDFKGRFAFSLETSASTAYLQINNLKNEDTATYFCARTAVYWGQGTTVTVSS
VL: B2 VL with L4M, K39E, A84V
notes: CDRs of EpAb2-6 grafted onto a human IgG1 backbone; also called hEpAb2-6

Key:
[1] = target: T1, EpCAM antigen immobilized on CM5 sensor …; experiment: SPR (BIAcore), EpCAM antigen immobilized on CM5 chip, mAb injected
Method: (§1) The affinity of murine and humanized antibodies was performed by surface plasmon resonance (BIAcore T100, Biacore, Inc). EpCAM antigen was immobilized on a Series S Sensor Chip CM5 (Biacore, Inc) and injected at a flow rate of 10 μl/min. The mAbs were diluted in HBS-EP⁺ buffer (Biacore, Inc) and injected at a flow rate of 50 μl/min for 1.5 min, and were allowed to dissociate over 5 min. […] The data were analyzed by the BIAevaluation software with a global fit 1:1 binding model.

[2] = target: T2, human epithelial cell adhesion molecule …; experiment: cellular ELISA on SAS cells, OD490nm
[3] = target: T1, EpCAM antigen immobilized on CM5 sensor …; experiment: SPR (BIAcore T100), EpCAM antigen immobilized on CM5 chip, mAb injected, 1:1 global fit
Method: as §1

| Binder | Kd [1] [pM] | koff [1] [s⁻¹] | kon [1] [M⁻¹ s⁻¹] | EC50 (read off the curve) [2] [µg/mL] | Kd [3] [nM] |
| --- | --- | --- | --- | --- | --- |
| B1 | 1.23 | 3.52e-07 | 286000 | – | – |
| B2 | – | 0.00014 | 401000 | ~0.01 | 0.349 |
| B3 | – | 0.000254 | 376000 | ~0.02 | 0.677 |
